# Patent US20220340673A1 (HARBOUR BIOMED SUZHOU, published 2022)
# T1: human BCMA on cells (HEK293T/huBCMA; NCI-H929) (human, UniProt Q02223 1-184)
# T1 sequence (looked up): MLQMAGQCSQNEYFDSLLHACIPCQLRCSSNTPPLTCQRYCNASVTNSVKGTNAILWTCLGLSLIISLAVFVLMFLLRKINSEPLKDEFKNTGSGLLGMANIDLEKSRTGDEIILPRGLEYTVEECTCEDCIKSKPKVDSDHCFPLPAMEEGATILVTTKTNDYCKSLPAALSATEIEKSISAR
# T2: human BCMA-Fc, Avitag recombinant protein (ACRO, Cat. BC7-H82F0) (human, UniProt Q02223 1-54)
# T2 construct: extracellular domain; Bought reagent; amine-coupled to the CM5 chip in the Biacore assay; also called recombinant human BCMA-ECD-Fc; human BCMA recombinant protein; not shown: Fc and Avitag of the bought protein
# T2 sequence (looked up): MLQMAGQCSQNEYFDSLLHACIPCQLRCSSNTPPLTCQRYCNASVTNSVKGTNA
# Columns and labels:
# [1] = target: T1, human BCMA on cells (HEK293T/huBCMA; …); test: cell-based or functional assay
# [2] = target: T1, human BCMA on cells (HEK293T/huBCMA; …); test: FACS on HEK293T/huBCMA cells
# Description: (§1) To study the in vitro binding activity of the BCMA arm of the BCMA×CD3 bispecific antibody, HEK293T cell strain overexpressing human BCMA (HEK293T/huBCMA) and HEK293T cell strain overexpressing cynomolgus monkey BCMA (HEK293T/cynoBCMA) were used for antibody binding experiments at cellular level. Briefly, HEK293T/huBCMA cells and HEK293T/cynoBCMA cells were digested and resuspended with DMEM complete medium. The cell density of the two was adjusted to 1×10⁶ cells/mL, respectively. Cells were inoculated at 100 μL cells/well in a 96 well V-bottom plate (Corning, Cat#: 3894), followed by the addition of test antibodies at 100 μL/well, which is gradient diluted at 3 folds of the concentration with 2 folds of the final concentration. Cells were incubated at 4° C. for 1 hour in the dark. Afterwards, the cells were washed twice with 100 μL/well of pre-cooled PBS, centrifuged at 500 g for 5 min at 4° C., and followed by discarding the supernatant. 100 μL/well of fluorescent secondary antibody (Alexa Fluor 488-conjugated AffiniPure Goat Anti-Human IgG, Fcγ Fragment Specific, Jackson, Cat#: 109-545-06, 1:500 dilution) was added and incubated for 30 min at 4° C. in the dark. […] Finally, the cells were resuspended with 200 μL/well of pre-cooled PBS, and the fluorescence luminescence signal values were read by BD FACS CANTOII. […]
# [3] = target: T1, human BCMA on cells (HEK293T/huBCMA; …); test: FACS on NCI-H929 cell line [B]
# Protocol: To study the binding activity of the BCMA arm of the BCMA×CD3 bispecific antibody to human BCMA, NCI-H929 cell line with highly expressed BCMA was used for binding experiments with human BCMA at cellular level. Briefly, NCI-H929 cell suspensions were collected. The cell density was adjusted to 1×10⁶ cells/mL, and the cells were inoculated in 96 well V-bottom plates at 100 μL cells/well (Corning, Cat#: 3894), followed by the addition of test antibodies at 100 μL/well, which is gradient diluted at 3 folds of the concentration with 2 folds of the final concentration. Cells were incubated at 4° C. for 2 hours in the dark. Afterwards, cells were washed twice with 100 μL/well of pre-cooled PBS, centrifuged at 500 g for 5 min at 4° C., and followed by discarding the supernatant. 100 μL/well of fluorescent secondary antibody (Alexa Fluor 488-conjugated AffiniPure Goat Anti-Human IgG, Fcγ Fragment Specific, Jackson, Cat#:109-545-06, 1:500 dilution) was added and incubated at 4° C. for 1 hour in the dark. Cells were washed twice with 100 μL/well of pre-cooled PBS, centrifuged at 500 g, 4° C. for 5 min, and followed by discarding the supernatant. Finally, the cells were resuspended with 200 μL/well of pre-cooled PBS, and the fluorescence luminescence signal values were read by BD FACS CANTOII.
# [4] = target: T2, human BCMA-Fc, Avitag recombinant …; test: SPR (Biacore T200), antigen amine-coupled on CM5, antibody as analyte, 1:1 fit
# Protocol: The flow rate was set as 10 μl/min and four antigens were coupled on four channels on two CMS: 1) the injection time was set as 300 s, and 50 mM of NHS and 200 mM of EDC were freshly mixed at 1:1 volume ratio and injected into four channels; 2) human BCMA-Fc, Avitag recombinant protein, cynomolgus monkey BCMA-FC, Avitag, human CD3e/g ECD-hFc recombinant protein and cynomolgus CD3e/g ECD-hFc recombinant protein were all diluted to 1 μg/ml with sodium acetate (Cat# BR-1003-50) (pH 4.5), and injected into channel 2, 3 and 4 of chip 1 and channel 2 of chip 2, respectively; 3) 1 M of ethanolamine (pH8.5) was injected for 300 s to block the remaining active carboxyl groups on the chips surface. After blockage, the instrument was continued to be equilibrated with 1 ×HBS- EP+buffer for two hours. The final coupling amounts of human BCMA-Fc, Avitag recombinant protein, cynomolgus monkey BCMA-Fc, Avitag, human CD3e/g ECD-hFc recombinant protein and cynomolgus monkey CD3e/g ECD-hFc recombinant protein were 120 RU, 70 RU, 200 RU and 290 RU, respectively.
# A multi-cycle kinetic mode was set, and each cycle included the binding of PRO03178 as well as the regeneration of the chip. […]
# The experimental results were analyzed by using Biacore T200 analysis software, and channel 1 was deducted as reference channel, and a 1:1 kinetic fit model was selected as the analysis model.
# [5] = target: T3, cynomolgus monkey BCMA on cells (HEK293T/cynoBCMA) (cynomolgus monkey, UniProt A0A2K5UD97 1-183); test: FACS on HEK293T cell strain overexpressing cynomolgus monkey BCMA [C]
# T3 construct: whole, on cells
# Description: as §1
# T3 sequence (A0A2K5UD97 entry or part of it): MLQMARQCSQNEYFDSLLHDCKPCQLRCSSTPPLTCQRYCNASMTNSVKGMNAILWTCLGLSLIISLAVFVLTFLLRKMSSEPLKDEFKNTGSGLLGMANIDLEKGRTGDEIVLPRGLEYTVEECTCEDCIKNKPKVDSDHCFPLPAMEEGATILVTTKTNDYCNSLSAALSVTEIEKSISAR
binder,measurement,setting,value
"BCMA x CD3 bispecific antibody PR003178 (bispecific antibody, human IgG1, lambda, L234A L235A, Three chains: HC1 (anti-CD3 heavy, knob, LALA), LC (anti-CD3 lambda light), HC2 (two tandem anti-BCMA VH of PR001046 joined by (G4S)3, then Fc hole, LALA); also called PRO03178) heavy 1: not shown light: QAVVTQEPSLTVSPGGTVTLTCRSSTGAVTTSNYANWVQQKPGQAPRGLIGGTNKRAPWTPARFSGSLLGDKAALTLLGAQPEDEAEYFCALWYSNLWVFGGGTKLTVLGQPKAAPSVTLFPPSSEELQANKATLVCLISDFYPGAVTVAWKADSSPVKAGVETTTPSKQSNNKYAASSYLSLTPEQWKSHRSYSCQVTHEGSTVEKTVAPTECS heavy 2: EVQLVETGGGLIQPGGSLRLSCAASGFTVSDNYMTWVRQAPGKGLEWVSVIFSGGNTYYADSVKGRFTISRDNAKNTLYLQMNSLRAEDTALYYCARRNYDDTRGTDVFDIWGQGTMVTVSSGGGGSGGGGSGGGGSEVQLVETGGGLIQPGGSLRLSCAASGFTVSDNYMTWVRQAPGKGLEWVSVIFSGGNTYYADSVKGRFTISRDNAKNTLYLQMNSLRAEDTALYYCARRNYDDTRGTDVFDIWGQGTMVTVSSASEPKSSDKTHTCPPCPAPEAAGGPSVFLFPPKPKDTLMISRTPEVTCVVVDVSHEDPEVKFNWYVDGVEVHNAKTKPREEQYNSTYRVVSVLTVLHQDWLNGKEYKCKVSNKALPAPIEKTISKAKGQPREPQVCTLPPSREEMTKNQVSLSCAVKGFYPSDIAVEWESNGQPENNYKTTPPVLDSDGSFFLVSKLTVDKSRWQQGNVFSCSVMHEALHNHYTQKSLSLSPGK","EC50 of the killing curve (LDH release, human PBMC effector cells, NCI-H929 target cells), fold against positive control 2",[1],10 fold
same,fold lower EC50 than positive control 2,[2],~5 fold
same,EC50,[3],1100 pM
same,Kd,[4],~94.9 pM
same,EC50,[5],921 pM
